For the assay, the target named is T1, streptavidin (UniProt P22629 25-183).
T1 construct: streptavidin; Plate-coated in the ELISA; covalently immobilised by amine coupling to a CM5 chip in SPR; Commercial streptavidin is often a truncated core form; source: bought: Pierce streptavidin-coated 96 well plate (Thermo Fisher Scientific) for the phage ELISA
Description: SPR; Biacore 8K, 25 °C; streptavidin amine-coupled to a CM5 chip; peptides 4.1 – 9000 nM in HBS-EP+ pH 7.4 at 30 µL/min, 180 s association, 600 s dissociation. To be noted: both partners purified. A general note: Surface plasmon resonance follows binding to a sensor surface in real time, without labels.

Positions of bridges follow the written chain, without caps; N, C: chain ends. No end group written: not given here. CCA = cyclopropenone-chloroacetamide linker between the two cysteines

The values below come from paper PMC11344848, “Proximity-driven site-specific cyclization of phage-displayed peptides” (Nature Communications, 2024).

T1 sequence (P22629 25-183): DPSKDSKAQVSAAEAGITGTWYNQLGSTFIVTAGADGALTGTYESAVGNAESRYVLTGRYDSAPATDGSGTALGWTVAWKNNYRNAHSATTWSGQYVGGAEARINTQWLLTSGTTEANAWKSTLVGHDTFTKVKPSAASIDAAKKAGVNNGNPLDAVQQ

The term Kd denotes the constant that tells how readily two partners part at equilibrium. CPINIFHPPPDC (linker 1-12 via CCA) [synthetic peptide Str1-CCA] came in with a Kd of 340 nM.
